Values of other authors, collected in PMC2678197 (Chemistry & biology, 2009).

Target: eotaxin (Homo sapiens, UniProt P51671)
Details: read-out: equilibrium dissociation constant (Kd); binding to eotaxin; ref [26]

Kd: 80 ± 38 µM
Substance: 35-residue non-sulfated peptide: 35-residue non-sulfated peptide corresponding to the complete N-terminal region of CCR3 (MTTSLDTVETFGTTSYYDDVGLLCEKADTRALMAQ; unsulfated; the limits 1-35 are inferred from '35-residue' and 'complete N-terminal region')
